In article PMC8828381 one finds Kd data, which are given here for one substance.

The assay addresses biotinylated SARS-CoV-2-S1 (SINO BIOLOGICAL #40591-V08H-B) (SARS-CoV-2). Description: SPR. On the technique in general: Surface plasmon resonance follows binding to a sensor surface in real time, without labels.

For “integrin α5β1 extracellular domain with flag tag on α5 and His tag on β1 (from UniProt P08648;P05556) (complex)”, the Kd is 31 nM.

By Kd is commonly meant the concentration at which binding is half-saturated.
